Test results reported in article PMC2864300, “Regulation of NOXO1 Activity through Reversible Interactions with p22^phox and NOXA1” (PLoS ONE, 2010).

Tests used:
[1] = target: human NOXO1 tandem SH3 domains (SH3AB) (human); experiment: ITC; data not shown; peptides of the human NOXO1 C-terminal tail titrated against human NOXO1 SH3 domains
[2] = target: human NOXO1 tandem SH3 domains (SH3AB) (human); experiment: ITC; MicroCal VP-ITC, 18°C; 150 mM NaCl, 1 mM DTT, 50 mM HEPES pH 7.4; typically 20–40 µM protein in the cell, 200–300 µM ligand injected; single-site binding model; averaged over three to five experiments

TAPPPTVPTRPSPGAIQSRCCTVTRRALE [peptideA (amino acids 319–347 of human NOXO1)]
Kd [1]: 50 µM

TAPPPTVPTRPS [shorter version of peptideA, which only contains the proline rich region]
Kd [2]: 50 µM
